Drawing on article PMC3214623, this text covers affinity (half-saturation of the heavy chain titration) for two substances.

The target in experiment [1] is human beta-2 microglobulin (human) (UniProt P61769). The experiment in a line: radioligand binding.
The target of experiment [2] is porcine beta-2 microglobulin (pig) (UniProt Q07717). The experiment in a line: radioligand binding.
UniProt Q07717, sequence (Q07717 21-118): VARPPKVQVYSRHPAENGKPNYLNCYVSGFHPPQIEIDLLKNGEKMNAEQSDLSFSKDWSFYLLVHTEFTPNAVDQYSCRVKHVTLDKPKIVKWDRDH

UniProt P61769, sequence (P61769 21-119): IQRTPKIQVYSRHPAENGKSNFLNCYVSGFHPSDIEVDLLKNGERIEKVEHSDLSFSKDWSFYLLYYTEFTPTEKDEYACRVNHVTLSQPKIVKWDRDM

On to “HLA-A*11:01 heavy chain, residues 1-275 (HHH) (domain or fragment)”, for which the affinity (half-saturation of the heavy chain titration) amounted to 1.07 nM in experiment [1] and 2.11 nM in experiment [2].
The like results for “chimeric MHC-I heavy chain HHP (HLA-A*11:01 α1α2, SLA-1*0401 α3) (domain or fragment)” were, in that order, 1.19 nM and 0.774 nM.
